Legend:
[1] = target: T1, ChroM1 DNA-binding domain recombinant protein (rP, residues 2333-2480) (Homo sapiens, UniProt Q3L8U1 SEQ:2333-2480); assay: EMSA; 1-3 ug rP; binding increases with protein; abolished by 100x cold oligo; 26 mM Hepes pH 7.9, 2 mM MgCl2, 40 mM KCl, RT; strandedness of probe not stated; details: label: 32P
T1 sequence: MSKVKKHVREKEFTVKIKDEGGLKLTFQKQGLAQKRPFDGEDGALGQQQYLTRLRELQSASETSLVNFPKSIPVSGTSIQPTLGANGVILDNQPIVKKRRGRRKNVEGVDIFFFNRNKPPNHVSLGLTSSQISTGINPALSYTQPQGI
Experimental: Electrophoretic mobility shift assay (EMSA): EMSA was performed between recombinant protein (rP) containing the DNA binding domain (residues 2333-2480 from sequence of ChroM1) and ³²P-labeled 32-mer oligonucleotide containing 24 A·T nucleotides, […] (SEQ ID NO:14). 1-3 μg of rP and 100,000 cpm of ³²P-labeled oligonucleotides were used for the binding reaction in the presence or absence of 100 fold excess cold oligonucleotide. The reaction was carried out in 20 μl of binding buffer (26 mM Hepes, pH 7.9, 2 mM MgCl₂, 40 mM KC1, 1 mM dithiothreitol and 0.25% BSA). The samples were incubated for 15 min at room temperature prior to loading in 5% native polyacrylamide gel in 0.25 Tris borate-EDTA (TBE). The gel was run for 40 min at RT and in TBE buffer. The gels were then dried and autoradiographed.

[2] = target: T1, ChroM1 DNA-binding domain recombinant …; assay: EMSA; binding reduced by distamycin A

B1: A/T-rich 32-mer oligonucleotide (dsDNA)
DNA 1: GATCCATATATATATATATATATATATATGCA
DNA 2: TGCATATATATATATATATATATATATGGATC
- binding result [1]: binds

B2: BMP4 distal promoter PCR fragment (145 bp) (dsDNA)
DNA 1: GCTAAAGGAGCACAATGCCTGATGCTGCAGGAGAAACATTAGGTAACTATTTAATGGAGTTTTAATTTTCTGTTATTATTTTTAATAATTAATTGTGATTTTGACTATTTGGAAGCTACAGGTATATTTTGTCCTCCTTTTGGGG
DNA 2: CCCCAAAAGGAGGACAAAATATACCTGTAGCTTCCAAATAGTCAAAATCACAATTAATTATTAAAAATAATAACAGAAAATTAAAACTCCATTAAATAGTTACCTAATGTTTCTCCTGCAGCATCAGGCATTGTGCTCCTTTAGC
- binding result [2]: binds
